Laboratory results from patent US20050282739A1 (PALATIN TECHNOLOGIES, published 2005).
Like-named read-outs stand apart in the source and are kept apart here. Square brackets hold non-standard residues; d marks the D form. Ends that are not written are not given here. Nle = CCCC[C@H](N)C(=O)O

What was measured:
[1] = target: T1, melanocortin-1 receptor (MC1-R) of B-16 mouse melanoma cells (mouse, UniProt Q01727 1-315); experiment: 125I-NDP-α-MSH competition, B-16 membranes
T1 construct: whole, on cells; membranes prepared from the cells were used; also called Melanocortin Receptor 1
T1 sequence (Q01727 whole entry): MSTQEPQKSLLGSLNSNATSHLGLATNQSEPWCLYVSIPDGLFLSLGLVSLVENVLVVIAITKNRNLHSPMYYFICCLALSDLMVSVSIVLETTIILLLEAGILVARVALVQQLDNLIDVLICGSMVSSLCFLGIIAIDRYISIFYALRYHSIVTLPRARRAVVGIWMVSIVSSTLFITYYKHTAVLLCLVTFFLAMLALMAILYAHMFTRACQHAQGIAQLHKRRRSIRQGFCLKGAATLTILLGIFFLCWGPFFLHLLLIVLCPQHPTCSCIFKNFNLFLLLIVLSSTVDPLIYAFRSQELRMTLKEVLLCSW
Method: (§1) The competitive inhibition binding assay was conducted using membranes prepared from hMC3-R, hMC4-R, hMC5-R, and B-16 mouse melanoma cells (containing MC1-R) using 0.4 nM ¹²⁵I-NDP-alpha-MSH (New England Nuclear, Boston, Mass., USA) in 50 mM HEPES buffer containing 1 mM MgCl₂, 2 mM CaCl₂, and 5 mM KCl, at pH 7.2. […] Incubation was for 90 minutes at room temperature, after which the assay mixture was filtered and the membranes washed three times with ice cold buffer. The filter was dried and counted in a gamma counter for remaining radioactivity bound to the membranes. 100% specific binding was defined as the difference in radioactivity (cpm) bound to cell membranes in the absence and presence of 1 μM α-MSH. […] Each assay was conducted in triplicate and the actual mean valves are described.
(§2) The first unnumbered peptide in Table 5 is the parent polypeptide, which is a γ-MSH analog specific for melanocortin receptors. The methods and assays set forth in Example 1 were followed.

[2] = target: T2, human melanocortin-3 receptor (hMC3-R) (human, UniProt P41968 1-323); experiment: 125I-NDP-α-MSH competition, hMC3-R membranes
T2 construct: whole, on cells; membranes prepared from hMC3-R cells were used; also called Melanocortin Receptor 3
T2 sequence (P41968 whole entry): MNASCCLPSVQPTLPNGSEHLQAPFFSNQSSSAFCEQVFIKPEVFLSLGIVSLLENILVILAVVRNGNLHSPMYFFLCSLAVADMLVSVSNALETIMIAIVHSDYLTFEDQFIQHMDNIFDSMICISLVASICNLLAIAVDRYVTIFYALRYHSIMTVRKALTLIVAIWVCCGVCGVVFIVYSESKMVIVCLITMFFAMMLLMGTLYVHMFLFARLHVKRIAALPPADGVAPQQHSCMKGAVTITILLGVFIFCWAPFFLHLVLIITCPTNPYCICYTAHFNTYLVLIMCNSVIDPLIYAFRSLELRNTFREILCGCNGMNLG
Method: as §1, §2

[3] = target: T3, human melanocortin-4 receptor (hMC4-R) (human, UniProt P32245 1-332); experiment: 125I-NDP-α-MSH competition, hMC4-R membranes
T3 construct: whole, on cells; membranes prepared from hMC4-R cells were used; also called Melanocortin Receptor 4
T3 sequence (P32245 whole entry): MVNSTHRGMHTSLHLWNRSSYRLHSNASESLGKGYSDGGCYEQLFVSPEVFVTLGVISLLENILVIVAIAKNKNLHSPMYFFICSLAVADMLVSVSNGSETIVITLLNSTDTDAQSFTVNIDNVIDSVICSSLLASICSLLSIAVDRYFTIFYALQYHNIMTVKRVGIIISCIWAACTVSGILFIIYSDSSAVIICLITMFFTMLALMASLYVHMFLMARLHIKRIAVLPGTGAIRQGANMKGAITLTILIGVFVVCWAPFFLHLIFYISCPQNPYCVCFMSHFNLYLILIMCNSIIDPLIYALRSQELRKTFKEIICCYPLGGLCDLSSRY
Method: as §1, §2

[4] = target: T4, human melanocortin-5 receptor (hMC5-R) (human, UniProt P33032 1-325); experiment: 125I-NDP-α-MSH competition, hMC5-R membranes
T4 construct: whole, on cells; membranes prepared from hMC5-R cells were used; also called Melanocortin Receptor 5
T4 sequence (P33032 whole entry): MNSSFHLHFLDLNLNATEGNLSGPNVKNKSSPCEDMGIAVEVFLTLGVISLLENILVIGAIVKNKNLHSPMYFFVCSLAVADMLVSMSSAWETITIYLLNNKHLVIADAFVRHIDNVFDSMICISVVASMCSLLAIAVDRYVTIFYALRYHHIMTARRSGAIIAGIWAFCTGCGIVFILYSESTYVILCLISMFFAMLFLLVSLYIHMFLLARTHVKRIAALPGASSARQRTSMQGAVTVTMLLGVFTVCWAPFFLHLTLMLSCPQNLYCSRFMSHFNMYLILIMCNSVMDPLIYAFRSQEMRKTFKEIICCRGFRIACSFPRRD
Method: as §1, §2

[5] = target: T1, melanocortin-1 receptor (MC1-R) of B-16 …; experiment: 125I-NDP-α-MSH competition, B-16 membranes; remark: listed apart in the source
Method: as §1
(§3) The first unnumbered peptide in Table 3 is the parent polypeptide, which is a Nle³, D-Phe⁶ substituted γ-MSH analog specific for melanocortin receptors. The methods and assays set forth in Example 1 were followed.

[6] = target: T2, human melanocortin-3 receptor (hMC3-R); experiment: 125I-NDP-α-MSH competition, hMC3-R membranes; remark: listed apart in the source
Method: as §1, §3

[7] = target: T3, human melanocortin-4 receptor (hMC4-R); experiment: 125I-NDP-α-MSH competition, hMC4-R membranes; remark: listed apart in the source
Method: as §1, §3

[8] = target: T4, human melanocortin-5 receptor (hMC5-R); experiment: 125I-NDP-α-MSH competition, hMC5-R membranes; remark: listed apart in the source
Method: as §1, §3

Binder	% Inhibition at 1 µM [1] [%]	% Inhibition at 1 µM [2] [%]	% Inhibition at 1 µM [3] [%]	% Inhibition at 1 µM [4] [%]	% Inhibition at 1 µM [5] [%]	% Inhibition at 1 µM [6] [%]	% Inhibition at 1 µM [7] [%]	% Inhibition at 1 µM [8] [%]
YVC[Nle]GH[dF]RWDRF-NH2 (bridge (positions not given here); not fully specified (bridges); printed as Tyr-Val-Cys-Nle-Gly-His-D-Phe-Arg-Trp-Asp-Arg-Phe-NH2.; also: oxorhenium(V) N3S1 complex) [metallopeptide 3-11]	–	–	–	–	95	85	82	92
YVXGHFRWDRF (Nle 3 (X in letters); D-Phe 6; C-terminal amide, not complexed to Re) [[Nle3, D-Phe6]-γ-MSH parent polypeptide Tyr-Val-Nle-Gly-His-D-Phe-Arg-Trp-Asp-Arg-Phe-NH2]	99	100	99	100	99	100	99	100
YV[Nle]GH[dF]RWDRC-NH2 (also: oxorhenium(V) N3S1 chelate: C11 SG + backbone N of D9, R10, C11, bridge at 11 via Re(V)=O, other end not in the chain) [metallopeptide 5-1]	101	92	95	98	–	–	–	–
YV[Nle]GH[dF]RWCRF-NH2 (also: oxorhenium(V) N3S1 chelate: C9 SG + backbone N of R7, W8, C9, bridge at 9 via Re(V)=O, other end not in the chain) [metallopeptide 5-3]	100	93	97	100	–	–	–	–
YV[Nle]GH[dF]RWDCF-NH2 (also: oxorhenium(V) N3S1 chelate: C10 SG + backbone N of W8, D9, C10, bridge at 10 via Re(V)=O, other end not in the chain) [metallopeptide 5-2]	95	39	58	61	–	–	–	–
YV[Nle]CGH[dF]RWDRF-NH2 (also: Re(V)=O N3S1 chelate via V2 N, Nle3 N, Cys4 N and S (ReOCl3(PPh3)2)) [metallopeptide 3-10]	–	–	–	–	84	78	80	86

Second part, the binder after the results:

% Inhibition at 1 µM [1] [%]	% Inhibition at 1 µM [2] [%]	% Inhibition at 1 µM [3] [%]	% Inhibition at 1 µM [4] [%]	% Inhibition at 1 µM [5] [%]	% Inhibition at 1 µM [6] [%]	% Inhibition at 1 µM [7] [%]	% Inhibition at 1 µM [8] [%]	Binder
89	53	66	53	–	–	–	–	YVCGH[dF]RWDRF-NH2 (also: oxorhenium(V) N3S1 chelate complex at Cys3) [metallopeptide 5-9]
74	26	4	21	–	–	–	–	YV[Nle]GHCRWDRF-NH2 (also: oxorhenium(V) N3S1 chelate: C6 SG + backbone N of G4, H5, C6, bridge at 6 via Re(V)=O, other end not in the chain) [metallopeptide 5-6]
89	70	69	88	–	–	–	–	YV[Nle]GC[dF]RWDRF-NH2 (also: oxorhenium(V) N3S1 chelate: C5 SG + backbone N of X3, G4, C5, bridge at 5 via Re(V)=O, other end not in the chain) [metallopeptide 5-7]
67	15	26	28	–	–	–	–	YV[Nle]GH[dF]CWDRF-NH2 (also: oxorhenium(V) N3S1 chelate: C7 SG + backbone N of H5, F6, C7, bridge at 7 via Re(V)=O, other end not in the chain) [metallopeptide 5-5]
95	89	86	98	–	–	–	–	YV[Nle]CH[dF]RWDRF-NH2 (also: oxorhenium(V) N3S1 chelate: C4 SG + backbone N of V2, X3, C4, bridge at 4 via Re(V)=O, other end not in the chain) [metallopeptide 5-8]
86	11	18	58	–	–	–	–	YV[Nle]GH[dF]RCDRF-NH2 (also: oxorhenium(V) N3S1 chelate: C8 SG + backbone N of F6, R7, C8, bridge at 8 via Re(V)=O, other end not in the chain) [metallopeptide 5-4]
